Substrate in the data set: O=[N+]([O-])c1ccc(OP(=O)(O)O)cc1
The data set can be described thus: purified protein. The conditions noted are these: pH 8.0; 37.0 °C.

B1: Rv1364c (Mycobacterium tuberculosis H37Rv) (protein)
chain: MAAEMDWDKTVGAAEDVRRIFEHIPAILVGLEGPDHRFVAVNAAYRGFSPLLDTVGQPAREVYPELEGQQIYEMLDRVYQTGEPQSGSEWRLQTDYDGSGVEERYFDFVVTPRRRADGSIEGVQLIVDDVTSRVRARQAAEARVEELSERYRNVRDSATVMQQALLAASVPVVPGADIAAEYLVAAEDTAAGGDWFDALALGDRLVLVVGDVVGHGVEAAAVMSQLRTALRMQISAGYTVVEALEAVDRFHKQVPGSKSATMCVGSLDFTSGEFQYCTAGHPPPLLVTADASARYVEPTGAGPLGSGTGFPVRSEVLNIGDAILFYTDGLIERPGRPLEASTAEFADLAASIASGSGGFVLDAPARPIDRLCSDTLELLLRSTGYNDDVTLLAMQRRAPTPPLHITLDATINAARTVRAQLREWLAEIGADHSDIADIVHAISEFVENAVEHGYATDVSKGIVVAAALAGDGNVRASVIDRGQWKDHRDGARGRGRGLAMAEALVSEARIMHGAGGTTATLTHRLSRPARFVTDTMVRRAAFQQTIDSEFVSLVESGRIVVRGDVDSTTAATLDRQIAVESRSGIAPVTIDLSAVTHLGSAGVGALAAACDRARKQGTECVLVAPPGSPAHHVLSLVQLPVVGADTEDIFAQE
In the case of B1, the Km came out at 3.61 ± 0.58 mM and the Vmax was determined as 0.09 µmol/min/mg.

What is called Km is the substrate concentration at which the rate is half of its maximum. In general, Vmax refers to the rate approached at saturating substrate.

The values above are taken from publication PMC3662962.
